We go through 49 molecules from patent US20200087363A1 (IMMATICS BIOTECHNOLOGIES, published 2020).

The assay addresses T1, HLA-B*44:05 (human).
T1 construct: also called peptide-receptive MHC class I molecule
Briefly: UV peptide exchange, anti-b2m ELISA. As to the method: Only peptide candidates that can effectively bind and stabilize the peptide-receptive MHC molecules prevent dissociation of the MHC complexes. To determine the yield of the exchange reaction, an ELISA was performed based on the detection of the light chain (β2m) of stabilized MHC complexes. The assay was performed as generally described in Rodenko et al. (Rodenko et al., 2006)
96 well MAXISorp plates (NUNC) were coated over night with 2 ug/ml streptavidin in PBS at room temperature, washed 4× and blocked for 1 h at 37° C. in 2% BSA containing blocking buffer. […] Peptide-MHC monomers of the UV-exchange reaction were diluted 100-fold in blocking buffer. Samples were incubated for 1 h at 37° C., washed four times, incubated with 2 ug/ml HRP conjugated anti-β2m for 1 h at 37° C., washed again and detected with TMB solution that is stopped with […]. Absorption was measured at 450 nm.

TEGDVLNYIF returned a peptide exchange yield of 50 to 75%.

Consider DENDAGNLITF, for which the peptide exchange yield fell in the range of 50 to 75%.

On to LEMLDAHRL, for which the peptide exchange yield lay in the range of 50 to 75%.

The molecule KELSVFKKF displayed a peptide exchange yield of 50 to 75%.

As to REEEANVVL, the peptide exchange yield was 50 to 75%.

Take LEIMTNLVTL: the peptide exchange yield was greater than 75%.

TEANVQALF displayed a peptide exchange yield greater than 75%.

On to SEFLLRIF, for which the peptide exchange yield was 20 to 50%.

Turning to LEEPMPFFY, the peptide exchange yield was 10 to 20%.

TELEVKIRDW: the peptide exchange yield is greater than 75%.

Take RELPLVLLA: the peptide exchange yield lay in the range of 20 to 50%.

Regarding HEVAQDDHL, the peptide exchange yield is 20 to 50%.

For the molecule MEGAALLKIF, the peptide exchange yield lay in the range of 50 to 75%.

EEQLLQKVM: the peptide exchange yield is greater than 75%.

Molecule SEAKEIKSQL displayed a peptide exchange yield of 50 to 75%.

KEHNSSVPWSS displayed a peptide exchange yield greater than 75%.

AEGEPPPAL returned a peptide exchange yield of 50 to 75%.

EELHAALSEW displayed a peptide exchange yield greater than 75%.

For the molecule QEAPRPASSL, the peptide exchange yield was 50 to 75%.

Consider AEHDMKSVL, for which the peptide exchange yield is 50 to 75%.

As to EEHSSKLQTSL, the peptide exchange yield was greater than 75%.

For the molecule WEVVHTVF, the peptide exchange yield lay in the range of 20 to 50%.

For MEIEGAGNFL, the peptide exchange yield is greater than 75%.

Molecule KEMQVTISQQL had a peptide exchange yield greater than 75%.

As to NEAGEVSKHF, the peptide exchange yield fell in the range of 50 to 75%.

TEQALRLSV returned a peptide exchange yield greater than 75%.

With AEGEPPPALAW, the peptide exchange yield was 50 to 75%.

As for MEHSDENIQFW, the peptide exchange yield was in the range of 20 to 50%.

MEILWKTLT displayed a peptide exchange yield greater than 75%.

EEGPSVPKIY gave a peptide exchange yield of 20 to 50%.

Molecule REILHAQTL returned a peptide exchange yield of 50 to 75%.

Take LEALLSDLF: the peptide exchange yield lay within 50 to 75%.

Regarding EEIFAHLGL, the peptide exchange yield lay in the range of 50 to 75%.

As for SEDPEKYYL, the peptide exchange yield fell in the range of 50 to 75%.

For REMFVFKDQW, the peptide exchange yield was greater than 75%.

AETENRYCV came in with a peptide exchange yield of 50 to 75%.

NEILTIHF yielded a peptide exchange yield of 20 to 50%.

Molecule RENPGMFSW had a peptide exchange yield of 50 to 75%.

Molecule GETQQHIQL showed a peptide exchange yield of 50 to 75%.

Take RELRPLFDRQW: the peptide exchange yield fell in the range of 50 to 75%.

The molecule ALNGDIYVW yielded a peptide exchange yield greater than 75%.

Regarding SEHSLEGQKF, the peptide exchange yield was 50 to 75%.

Turning to MEIKGTVTEF, the peptide exchange yield fell in the range of 50 to 75%.

Molecule AEFVPKADLL displayed a peptide exchange yield of 50 to 75%.

Take AELPENLKALF: the peptide exchange yield was in the range of 50 to 75%.

Regarding YERPTLVEL, the peptide exchange yield lay in the range of 50 to 75%.

EEHIFSAF gave a peptide exchange yield of 20 to 50%.

LEGGGRGGEF: the peptide exchange yield was in the range of 20 to 50%.

Turning to EEFLRPRSL, the peptide exchange yield lay within 20 to 50%.
